Laboratory results reported in PMC9544338, “Restoration of the GTPase activity and cellular interactions of Gαo mutants by Zn^2+ in GNAO1 encephalopathy models” (Science Advances, 2022).

Biological target: T1, Gαo-GFP (C-terminally tagged) wild type (human, UniProt P09471 1-354)
T1 construct: Gαo (GNAO1); also called WT Gαo; source: N2a cells, transfected, in lysate; not shown: GFP, C-terminal, kept
Assay: co-IP; N2a cells cotransfected with His6-RGS19 and Gαo-GFP (C-terminally tagged) variants, treated with 1 μM ZPT for 3 hours before IP of Gαo with a nanobody against GFP; Western blot; fold against DMSO-treated cells
Conditions: partners not purified

T1 sequence (P09471 whole entry): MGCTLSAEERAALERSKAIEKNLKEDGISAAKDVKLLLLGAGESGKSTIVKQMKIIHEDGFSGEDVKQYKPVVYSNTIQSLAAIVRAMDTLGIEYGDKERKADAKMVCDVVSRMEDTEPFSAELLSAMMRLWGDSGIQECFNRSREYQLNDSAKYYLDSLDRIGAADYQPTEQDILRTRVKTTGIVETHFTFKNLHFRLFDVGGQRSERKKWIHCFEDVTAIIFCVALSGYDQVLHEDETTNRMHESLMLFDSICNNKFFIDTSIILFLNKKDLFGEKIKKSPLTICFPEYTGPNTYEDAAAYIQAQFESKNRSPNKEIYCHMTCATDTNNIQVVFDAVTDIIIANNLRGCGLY

B1: His6-RGS19 (natural protein, UniProt P49795 1-217, looked up)
chain: MPTPHEAEKQITGPEEADRPPSMSSHDTASPAAPSRNPCCLCWCCCCSCSWNQERRRAWQASRESKLQPLPSCEVCATPSPEEVQSWAQSFDKLMHSPAGRSVFRAFLRTEYSEENMLFWLACEELKAEANQHVVDEKARLIYEDYVSILSPKEVSLDSRVREGINKKMQEPSAHTFDDAQLQIYTLMHRDSYPRFLSSPTYRALLLQGPSQSSSEA
notes: RGS19 (regulator of G protein signaling 19); plasmid previously described; source: N2a cells, transfected, in lysate
fold increase of the interaction by ZPT over DMSO: ~2 fold
